Test results as given in US10273304B2, “Biomarker profiles for predicting outcomes of cancer therapy with ERBB3 inhibitors and/or chemotherapies” (Merrimack Pharmaceuticals, Inc., priority 2013, dated 2019).

Assays:
[1] = test system: locally advanced or metastatic ER+ and/or PR+, HER2 negative breast cancer; experiment: Randomized, double-blind phase 2 trial of exemestane +/- MM-121, breast cancer; type: in vivo, human
[2] = test system: EGFR-wild-type non-small cell lung cancer (NSCLC)
Description: A group participating in the study was comprised of 132 patients with wild-type epidermal growth factor receptor (EGFR) who progressed on ≥1 platinum-based standard of care therapy and were EGFR tyrosine kinase inhibitor (TKI)-naïve. […] Data were collected at 10+ months.
Therefore, in this Example, Biomarker positive (BM+) is used interchangeably with Heregulin positive (HRG+). BM+ patients were defined as having detectable HRG mRNA by RNA-ISH (RNA in situ hybridization) as described above in Example 1.

[3] = test system: advanced, platinum-resistant ovarian cancer; experiment: Clinical trial, ovarian cancer: paclitaxel with or without MM-121; type: in vivo, human; settings: for HR (PFS, treatment vs control): paclitaxel+MM-121 vs paclitaxel, data at 60 weeks
Description: A clinical trial was performed that was designed to allow, inter alia, determination of associations between biomarker profiles and clinical responses. Biomarker data were measured in pre-treatment biopsies and (when available) in archived tumor samples. Results pertaining to predictive biomarkers measured in pre-treatment biopsies are described herein.
Four types of assay (each set forth above) were used to assess the six primary biomarkers assessed in this study (EGFR, ErbB2, ErbB3, ErbB4, HRG and BTC):
In total, six primary biomarkers were measured using 15 assays. For the 5 chromogenic assays (qIHC and RNA-ISH), two different overall scores were used: composite score and top-10 score. Accordingly, 20 different variables were assessed at this stage. A Cox proportional hazard model was used to rank the biomarkers. This method determines if PFS varies with biomarker values differently in the treatment arm relative to the control arm. A P-value cutoff of 0.4 was used to determine which biomarkers would be prioritized for subsequent bivariate analyses.
Based on these two thresholds, a biomarker profile positive (BM+) subpopulation is defined for subsequent analyses as: (ErbB2 levels ≤log10 5.1) AND (HRG score ≥1) (“ErbB2 low” AND “HRG positive”). Accordingly, a biomarker profile negative (BM−) subpopulation is defined as (ErbB2 levels >log10 5.1) OR (HRG score <1) This definition results in a BM+prevalence of 34% in the clinical trial population.
In FIG. 8G (progression free survival at 10+ months) and FIG. 8H (overall survival at 10+ months), the treatment arm is represented by a blue line and the control arm is represented by a black line.

ErbB3 = ErbB3 (Homo sapiens, UniProt P21860); experiment: Pre-clinical data and computational modeling: MM-121 potency versus ErbB2 level; settings: when ErbB2 levels rise above about 100,000 to about 200,000 receptors per cell
[4] = BM+ (heregulin+) patients, FIG. 11
[5] = group ErbB2 < 5.1 (qIHC) & HRG > -5

Q: How did the “PFS of BM- (heregulin-) patients compared with BM+ (heregulin+) patients” value (“PFS … compared with BM+ (heregulin+) patients” for short) ([1]; patients treated with exemestane alone, FIG. 10E) turn out when `C=C1C[C@@H]2[C@H](CC[C@]3(C)C(=O)CC[C@@H]23)[C@@]2(C)C=CC(=O)C=C12` [exemestane, 6-methylenandrosta-1,4-diene-3,17-dione, reference compound] was run?
A: Its value is “much longer PFS”.

Q: How did the “best overall response: complete response (CR)” value [2, 4] turn out when `C#Cc1cccc(Nc2ncnc3cc(OCCOC)c(OCCOC)cc23)c1` [erlotinib] was run?
A: The value was “none”.

Q: And the “best overall response: partial response (PR)” value [2, 4]?
A: The value was 6.7%.

Q: What about the “best overall response: progressive disease (PD)” value [2, 4] of the same molecule?
A: Its value is 53.3%.

Q: What about the “PFS … compared with BM+ (heregulin+) patients” value ([2]; patients treated with erlotinib alone, FIG. 12C) of the same molecule?
A: The value was “much longer PFS”.

Q: With `CC(=O)O[C@H]1C(=O)[C@@]2(C)[C@H]([C@H](OC(=O)c3ccccc3)[C@]3(O)C[C@H](OC(=O)[C@H](O)[C@@H](NC(=O)c4ccccc4)c4ccccc4)C(C)=C1C3(C)C)[C@]1(OC(C)=O)CO[C@@H]1C[C@@H]2O` [paclitaxel, Paclitaxel, reference compound] as the molecule, how does the “PFS … compared with BM+ (heregulin+) patients” value ([3]; patients treated with paclitaxel alone, FIG. 8I) read?
A: The value was “much longer PFS”.

B1: MM-121: anti-ErbB3 monoclonal antibody having VH and VL sequences as shown in SEQ ID NOs: 1 and 2 (antibody, V domains shown)
VH: EVQLLESGGGLVQPGGSLRLSCAASGFTFSHYVMAWVRQAPGKGLEWVSSISSSGGWTLYADSVKGRFTISRDNSKNTLYLQMNSLRAEDTAVYYCTRGLKMATIFDYWGQGTLVTVSS
VL: QSALTQPASVSGSPGQSITISCTGTSSDVGSYNVVSWYQQHPGKAPKLIIYEVSQRPSGVSNRFSGSKSGNTASLTISGLQTEDEADYYCCSYAGSSIFVIFGGGTKVTVL
Q: Which “HR (trt:ctrl)” value ([3]; BM+ (HER2 low & HRG+), subgroup ErbB4 score 0) does the source give for B1 here?
A: The value was 0.13.

Q: And the “HR (trt:ctrl)” value ([3]; BM+, subgroup ErbB4 score >=1)?
A: Its value is 0.65.

Q: What about the “HR (trt:ctrl)” value ([3]; BM- (HER2 low & HRG+ not met), subgroup ErbB4 score 0) of the same molecule?
A: The value was 1.05.

Q: What about the “HR (trt:ctrl)” value ([3]; BM-, subgroup ErbB3 score >=2) of the same molecule?
A: The value was 0.86.

Q: And the “cumulative HR” value ([3]; all patients with BM measurements, prevalence=100%)?
A: Its value is “≈ 1”.

Q: And the “HR (PFS, treatment vs control)” value ([3]; BM+ subpopulation (ErbB2 <=log10 5.1 AND HRG score >=1))?
A: Its value is 0.37.

Q: And the “HR (PFS, treatment vs control)” value ([3]; BM- subpopulation (ErbB2 >log10 5.1 OR HRG score <1))?
A: Its value is 1.54.

Q: What about the “estimated HR in the BM+ group, sensitivity analysis” value ([1]; Cox model with additive terms for treatment, biomarker groups and clinical covariates) of the same molecule?
A: The value was 0.38.

Q: And the “HR, BM population” value ([1]; MM-121+exemestane vs exemestane, no selection, N=115)?
A: The value was 0.75.

Q: And the “HR, BM negative” value ([1]; group ErbB2 < 5.1 (HCT))?
A: The value was 3.00.

Q: And the “HR, BM population” value ([1]; group ErbB2 < 5.1 (HCT))?
A: The value was 0.82.

Q: And the “HR, BM positive” value ([1]; group ErbB2 < 5.1 (HCT))?
A: Its value is 0.62.

Q: And the “HR, BM population” value ([1]; group ErbB2 < 5.1 (HCT) & HRG > -5, 55 patients)?
A: Its value is 0.66.

Q: And the “HR, BM positive” value ([1]; group ErbB2 < 5.1 (HCT) & HRG > -5, PFS at about 60 weeks, N=17)?
A: The value was 0.32.

Q: And the “HR, BM negative” value ([1]; group ErbB2 < 5.1 (HCT) & HRG > -5, PFS at about 60 weeks, N=38)?
A: Its value is 0.89.

Q: What about the “HR, BM negative” value ([1]; group ErbB2 < 5.1 (qIHC)) of the same molecule?
A: The value was 3.00.

Q: And the “HR, BM population” value ([1]; group ErbB2 < 5.1 (qIHC))?
A: The value was 1.16.

Q: And the “HR, BM positive” value ([1]; group ErbB2 < 5.1 (qIHC))?
A: Its value is 0.84.

Q: What about the “HR, BM negative” value [1, 5] of the same molecule?
A: The value was 1.30.

Q: What about the “HR, BM population” value [1, 5] of the same molecule?
A: Its value is 0.86.

Q: What about the “HR, BM positive” value [1, 5] of the same molecule?
A: Its value is 0.32.

Q: And the “HR, BM negative” value ([1]; group HRG > -5)?
A: The value was 0.99.

Q: What about the “HR, BM positive” value ([1]; group HRG > -5) of the same molecule?
A: The value was 0.35.

Q: What about the “HR, BM population” value ([1]; group HRG > -5 (RT-PCR), all patients with this biomarker) of the same molecule?
A: The value was 0.68.

Q: What about the “potency as a function of ErbB2 level” value (ErbB3) of the same molecule?
A: Its value is “loses potency”.
